Assay results published in article PMC6378327, “Modes of Accessing Bicarbonate for the Regulation of Membrane Guanylate Cyclase (ROS-GC) in Retinal Rods and Cones” (eNeuro, 2019).

Molecular target: the molecule itself
Experiment: SEC + other: gel electrophoresis without reducing agents; purified fragment in solution; molecular weight markers during FPLC elution (Superdex 200) and gel electrophoresis performed without reducing agents

B1: core catalytic domain fragment of bovine ROS-GC1 (G817-Y965) (domain or fragment)
chain: not shown
notes: bovine ROS-GC1 (retinal membrane guanylate cyclase 1), core catalytic domain, G817-Y965; numbers count on: the mature protein (according to Goraczniak et al., 1994); Cloned into the BglII/NcoI site of pET30Xa/LIC (Novagen); Residue numbers are on the mature protein, so they are shifted by the length of the signal peptide relative to the precursor entry; also called ROS-GC1 fragment; soluble …
  stoichiometry N: 2
